Data taken from the supplement of paper PMC9732359.
± gives the uncertainty stated by the source.

Assay: protein stability index of a GFP-peptide fusion (yeast GPS) (PSI 1-4); higher = more stable; sorted into four equal gates, so the index is relative within each strain
Procedure, shortened: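 Plasmids isolated from each sorting gate were PCR-amplified and Illumina-sequenced, and barcodes assigned the reads to strains. The gates, four of equal size, were set by GFP/Cherry fluorescence ratio on mid-log cultures in leucine-free medium. These cultures were yeast carrying a pooled library of tiled 17-residue yeast protein peptides fused downstream of GFP on a plasmid that also expresses Cherry. The protein stability index is the sum of every gate's read frequency times its gate number.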

Sequence	protein stability index (doa10∆)	protein stability index (pdr5∆)	protein stability index (san1∆)	protein stability index (ubr1∆)
SCTLLERGHPKDNARIY [POP1]	1.87 ± 0.056	2.15 ± 0.064	2.76 ± 0.055	2.99 ± 0.063
ATASAIAATAVASLVLA [RPL4A]	2.37 ± 0.1	1.78 ± 0.071	1.91 ± 0.17	1.88 ± 0.082
QQTGLVDAITRCYQPFE [SNU114]	2.53 ± 0.069	2.76 ± 0.056	3.04 ± 0.041	2.98 ± 0.05
AASVIGMLVALGRLSVR [RPC82]	–	1.32 ± 0.07	1.11 ± 0.23	1.24 ± 0.097
PSYTHVLISKLSCEKIT [RRI1]	2.18 ± 0.04	1.99 ± 0.043	2.12 ± 0.047	1.98 ± 0.035
SNKPCMGIVQDTLCGIR [RPO21]	2.45 ± 0.065	1.8 ± 0.067	2.15 ± 0.073	1.77 ± 0.088
AKGKSGVQTAYIDYSSK [RRP40]	2.54 ± 0.24	–	–	2.91 ± 0.24
KRIESLQKDLQRQKTYV [SMC1]	3.01 ± 0.16	3.2 ± 0.13	2.85 ± 0.21	2.9 ± 0.15
EKGLNELSIRDVTHTLG [SMC4]	1.34 ± 0.14	2.42 ± 0.092	2.48 ± 0.17	1.57 ± 0.1
EGIIKPISKHSKQAIYT [RPS25A]	1.65 ± 0.065	2.03 ± 0.057	1.47 ± 0.095	1.72 ± 0.056
QIIQRDKINKYSLIRET [SNF5]	1.39 ± 0.093	1.3 ± 0.13	–	1.15 ± 0.2
VVLVSGEGERFTVDKKI [SKP1]	3.53 ± 0.11	3.6 ± 0.12	3.28 ± 0.075	2.97 ± 0.094
SYVNYRHMALLVDVMTT [RPO21]	1.23 ± 0.049	1.25 ± 0.049	1.2 ± 0.062	1.18 ± 0.034
LRVDEVQGKNLLTNFHG [RPS1A]	3.29 ± 0.067	3.42 ± 0.055	3.3 ± 0.047	3.26 ± 0.041
IESIRSCKDSQLKWAQN [YIL149C/MLP2]	2.78 ± 0.064	3.01 ± 0.069	2.75 ± 0.053	2.95 ± 0.053
FYQQVHKKDRLQYLPLY [SIR4]	1.64 ± 0.063	1.77 ± 0.058	1.75 ± 0.11	1.67 ± 0.048
VKFLVYQGVYSMGSILL [YML031W/NDC1]	1.65 ± 0.091	1.43 ± 0.088	1.28 ± 0.099	1.7 ± 0.17
MALNKVLITDHIEKLEN [CDC53]	2.52 ± 0.053	2.14 ± 0.047	2.15 ± 0.059	2.28 ± 0.052
KIQQHNTILNSSSDFRL [BRR2]	2.71 ± 0.06	2.89 ± 0.067	2.89 ± 0.041	2.78 ± 0.046
FLPFNNSASNNGNLTSN [SWI1]	2.94 ± 0.093	3.02 ± 0.094	3.07 ± 0.058	2.9 ± 0.099
LQIGDVVERHLEDGDVV [RPO31]	3.38 ± 0.088	3.43 ± 0.095	3.49 ± 0.069	3.39 ± 0.098
KCGSVTVRLIPAPRGSG [RPS2]	1.35 ± 0.11	2.07 ± 0.072	1.4 ± 0.17	1.99 ± 0.1
SNTIDELSTDIILKTRQ [SRB7]	2.96 ± 0.076	3.19 ± 0.083	3.18 ± 0.089	3.03 ± 0.063
PWYNNPVSCIIQNDEEY [PRP8]	1.88 ± 0.13	2.05 ± 0.094	2.43 ± 0.13	1.05 ± 0.12
NANTGFSFGGTQTGQNT [YGL172W/NUP49]	3.42 ± 0.14	3.21 ± 0.11	3.23 ± 0.086	3.49 ± 0.11
VGRFSTISSADFIQNVG [ECM29]	3.16 ± 0.1	2.65 ± 0.079	3.03 ± 0.08	2.72 ± 0.088

Sequence	protein stability index (doa10∆)	protein stability index (pdr5∆)	protein stability index (san1∆)	protein stability index (ubr1∆)
RGNIKVMFATNRPNTLD [RPT1]	2.91 ± 0.079	3.05 ± 0.088	3.02 ± 0.063	2.98 ± 0.085
LERFNKRADISKRRITE [SMC1]	3.14 ± 0.14	2.7 ± 0.074	2.96 ± 0.17	2.99 ± 0.13
EYLFKPQLISDKFSPED [ARP7]	2.38 ± 0.053	2.46 ± 0.042	2.32 ± 0.056	2.17 ± 0.041
AAVIMRCKIYFFYLRIS [PCI8]	1.33 ± 0.067	1.35 ± 0.06	1.15 ± 0.11	1.09 ± 0.088
EGEKCHPQDFGNPGRIR [SEC65]	3.03 ± 0.076	2.76 ± 0.066	2.81 ± 0.057	3.08 ± 0.047
AQKYASIVGVDLSSAAS [FAS2]	2.13 ± 0.069	2.21 ± 0.082	1.66 ± 0.12	1.75 ± 0.062
LGLGIAFAGSKNDEVLG [RPN1]	3.09 ± 0.3	2.94 ± 0.15	2.81 ± 0.26	3.04 ± 0.14
KVFVPPKSKSLPNEMSQ [RPO31]	3.1 ± 0.13	3.14 ± 0.12	3.09 ± 0.16	2.87 ± 0.13
TKIIMATNRPDTLDPAL [RPT4]	2.98 ± 0.065	3 ± 0.063	2.9 ± 0.054	3.12 ± 0.1
HPFGHALVAGIERYPSK [RPL27B]	2.43 ± 0.14	2.67 ± 0.1	2.24 ± 0.16	2.46 ± 0.17
KIADLVRIPPDQFHRDT [RPC25]	2.18 ± 0.063	2.52 ± 0.062	2.45 ± 0.085	2.93 ± 0.088
LESSITDAGVLALKLEL [YJL039C/NUP192]	1.57 ± 0.06	1.48 ± 0.061	1.3 ± 0.13	1.57 ± 0.085
VEKGTPLGKILLKGDNI [SME1]	3.58 ± 0.088	3.43 ± 0.093	3.38 ± 0.14	3.59 ± 0.078
DINVESLTQSVCDLALR [PUP2]	1.52 ± 0.1	1.91 ± 0.067	1.67 ± 0.18	1.93 ± 0.037
GEMVGVLAAQSIGEPAT [RPO21]	2.36 ± 0.087	2.55 ± 0.073	2.38 ± 0.066	2.58 ± 0.088
NQMGMGTNNGMSMGGGV [YOR098C/NUP1]	3.39 ± 0.13	3.15 ± 0.17	3.33 ± 0.099	3.24 ± 0.11
TSTVNRLNTVTRVHQLM [MCD1]	3.22 ± 0.12	1.49 ± 0.06	2.21 ± 0.2	2.57 ± 0.094
YDSDSDSSVEDSTDNEN [LIN1]	3.08 ± 0.071	2.95 ± 0.1	2.91 ± 0.12	3.1 ± 0.042
LNLDEIVACELILSGDT [YJL039C/NUP192]	2.64 ± 0.08	2.7 ± 0.084	3.05 ± 0.096	2.6 ± 0.12
DEGGAKSLLLNTLNIDN [BRN1]	3.19 ± 0.077	3.16 ± 0.097	3.1 ± 0.083	3.38 ± 0.075
IHQYLFQEGVVVAKKDF [RPS10A]	2.29 ± 0.068	2.08 ± 0.071	1.93 ± 0.089	2.04 ± 0.085
HKDSFYDRATLTQLLSM [RPO31]	1.79 ± 0.066	2.09 ± 0.062	2.09 ± 0.071	1.35 ± 0.04
LRIVTHLAICLDIINPG [YDL116W/NUP84]	1.61 ± 0.08	1.38 ± 0.083	1.57 ± 0.095	1.82 ± 0.067
KVDSPDDPFMTKSGATT [GAL11]	2.51 ± 0.077	2.63 ± 0.071	2.59 ± 0.055	2.79 ± 0.045
AKNFSAQKRVVSYMMPS [SRB8]	2.02 ± 0.17	–	2.28 ± 0.15	1.96 ± 0.13
IDGCVKIGDLGLARKFH [SSN3]	2.98 ± 0.078	3.33 ± 0.08	3.14 ± 0.058	3.37 ± 0.043

Sequence	protein stability index (doa10∆)	protein stability index (pdr5∆)	protein stability index (san1∆)	protein stability index (ubr1∆)
PYSKNAVEQLAGCKIDN [YDL088C/ASM4]	2.58 ± 0.089	2.6 ± 0.089	2.41 ± 0.092	2.56 ± 0.047
KSFYSTATGAASKSGKL [CYT1]	2.74 ± 0.091	2.62 ± 0.1	2.87 ± 0.079	2.75 ± 0.059
KADIGKPGRMPFNFTVT [CDC53]	2.33 ± 0.042	2.75 ± 0.048	2.73 ± 0.058	2.89 ± 0.05
RPFGVALLIAGHDADDG [PUP2]	1.66 ± 0.16	2.66 ± 0.21	–	2.6 ± 0.14
VLTGGYLDQHKRTRLES [SMC3]	2.26 ± 0.17	2.04 ± 0.23	1.19 ± 0.16	2.62 ± 0.26
KFLREVFVDGEANWPLP [RPO21]	2.85 ± 0.085	3.16 ± 0.079	3.04 ± 0.093	3.12 ± 0.074
AEWSLVRIYSGLLKRGD [SNU114]	2.95 ± 0.093	3.27 ± 0.1	3.26 ± 0.079	3.29 ± 0.12
TRNITDYSINSRYEPKV [PRE7]	2.62 ± 0.053	2.7 ± 0.049	2.99 ± 0.046	2.88 ± 0.047
ANLLQINVDNDPFFAQS [YML103C/NUP188]	3.04 ± 0.059	3.14 ± 0.06	2.88 ± 0.055	2.93 ± 0.094
DHNALPQRCTFAFEAID [POP1]	2.36 ± 0.09	2.84 ± 0.077	2.79 ± 0.089	3.09 ± 0.057
FEGCYYTPEESAWIWPM [RPC25]	–	2.3 ± 0.21	2.55 ± 0.2	2.52 ± 0.13
LSSYQKKIIKCDEHMGL [PRE5]	2.19 ± 0.1	2.37 ± 0.13	2.19 ± 0.21	2.71 ± 0.22
EETPSKTNKISILKRHS [NUT1]	–	–	–	3.1 ± 0.17
VEIAYHKCDELITLFNK [RPO31]	3.16 ± 0.19	3.01 ± 0.087	2.99 ± 0.078	2.96 ± 0.1
DSENNEENSSSNGNNLP [RGR1]	2.96 ± 0.061	2.96 ± 0.056	2.96 ± 0.055	3.06 ± 0.039
MDFGVDPSMDPELAMAL [RPN10]	2.88 ± 0.077	3.15 ± 0.079	2.99 ± 0.074	2.84 ± 0.069
QPNARALERYDEAEGRF [SMC1]	3.44 ± 0.12	3.58 ± 0.1	3.17 ± 0.074	3.29 ± 0.097
QLEDESSRLEFVKGISR [YML103C/NUP188]	3.45 ± 0.095	3.2 ± 0.11	3.33 ± 0.067	3.21 ± 0.099
ADEMGLGKTIQTISLLT [SNF2]	1.73 ± 0.092	2.5 ± 0.086	2.46 ± 0.08	2.41 ± 0.075
SYLETLTALGKEKEKER [MED2]	2.57 ± 0.16	1.93 ± 0.12	2.34 ± 0.17	2.92 ± 0.057
HVLKTVDYGGAEWSLVR [SNU114]	3.09 ± 0.19	3.42 ± 0.21	3.11 ± 0.18	1.31 ± 0.29
DKFRKACSSSGRETILS [SIR3]	1.94 ± 0.042	2.08 ± 0.042	1.83 ± 0.073	2.64 ± 0.046
SKLKLKNLLRKNLSIDE [ECM29]	1.71 ± 0.086	1.47 ± 0.054	1.46 ± 0.098	1.76 ± 0.062
ITSFLLSKMENVNLDDY [NAS6]	1.95 ± 0.11	1.54 ± 0.052	1.87 ± 0.12	1.85 ± 0.057
DSEDEDSMKDTTDMISV [YML031W/NDC1]	3.17 ± 0.17	–	3.2 ± 0.11	2.98 ± 0.21
NKGLVVSPYDYNHKRVS [DIB1]	2.39 ± 0.066	2.41 ± 0.066	1.61 ± 0.11	2.33 ± 0.087
